Columns and labels:
[1] = target: soluble mouse Fc-human NKG2D dimer (human) (UniProt P26718); assay: SPR, 37 C, mFc-hNKG2D captured, TriNKET as analyte, experiment 1
[2] = target: soluble mouse Fc-human NKG2D dimer (human) (UniProt P26718); assay: SPR, 37 C, mFc-hNKG2D captured, TriNKET as analyte, experiment 2
[3] = target: soluble mouse Fc-human NKG2D dimer (human) (UniProt P26718); assay: SPR, 37 C, mFc-hNKG2D captured, TriNKET as analyte, experiment 3
[4] = target: soluble mouse Fc-human NKG2D dimer (human) (UniProt P26718); assay: SPR, 37 C, average of three experiments for TriNKET A (columns shifted)
[5] = target: soluble mouse Fc-human NKG2D dimer (human) (UniProt P26718); assay: SPR, 37 C, mFc-hNKG2D captured, TriNKET as analyte, kinetic fit, experiment 1
[6] = target: soluble mouse Fc-human NKG2D dimer (human) (UniProt P26718); assay: SPR, 37 C, mFc-hNKG2D captured, TriNKET as analyte, kinetic fit, experiment 2
[7] = target: soluble mouse Fc-human NKG2D dimer (human) (UniProt P26718); assay: SPR, 37 C, mFc-hNKG2D captured, TriNKET as analyte, kinetic fit, experiment 3
[8] = target: soluble mouse Fc-human NKG2D dimer (human) (UniProt P26718); assay: SPR, 37 C, mFc-hNKG2D captured, TriNKET as analyte, steady state affinity fit, experiment 1
[9] = target: soluble mouse Fc-human NKG2D dimer (human) (UniProt P26718); assay: SPR, 37 C, mFc-hNKG2D captured, TriNKET as analyte, steady state affinity fit, experiment 2
[10] = target: soluble mouse Fc-human NKG2D dimer (human) (UniProt P26718); assay: SPR, 37 C, mFc-hNKG2D captured, TriNKET as analyte, steady state affinity fit, experiment 3
[11] = target: soluble mouse Fc-human NKG2D dimer (human) (UniProt P26718); assay: SPR, 37 C, kinetic fit, average of three experiments for TriNKET A (cell split over r19 and r20, columns shifted)
[12] = target: soluble mouse Fc-human NKG2D dimer (human) (UniProt P26718); assay: SPR, 37 C, steady state affinity fit, average of three experiments for TriNKET A (cell split over r19 and r20, columns shifted)

soluble mouse Fc-human NKG2D dimer (human), sequence (P26718 78-216): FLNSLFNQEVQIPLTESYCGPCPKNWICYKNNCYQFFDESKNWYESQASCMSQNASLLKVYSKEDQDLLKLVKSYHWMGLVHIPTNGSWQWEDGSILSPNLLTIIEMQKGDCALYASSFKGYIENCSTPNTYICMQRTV

B1: TriNKET A (a TriNKET containing A49) (bispecific antibody, part only; not given: Tumour antigen arm, constant regions, Fc, V domains shown, not shown: another chain or arm of the molecule; a dimerising Fc or GST)
VH: EVQLVESGGGLVKPGGSLRLSCAASGFTFSSYSMNWVRQAPGKGLEWVSSISSSSSYIYYADSVKGRFTISRDNAKNSLYLQMNSLRAEDTAVYYCARGAPMGAAAGWFDPWGQGTLVTVSS
VL: DIQMTQSPSSVSASVGDRVTITCRASQGISSWLAWYQQKPGKAPKLLIYAASSLQSGVPSRFSGSGSGTDFTLTISSLQPEDFATYYCQQGVSFPRTFGGGTKVEIK
Stoichiometry [1]: 1.01 | Stoichiometry [2]: 0.88 | Stoichiometry [3]: 1.12 | Stoichiometry [4]: 1.01 | Kd [5]: 0.605 µM | koff [5]: 0.116 s⁻¹ | kon [5]: 191000 M⁻¹ s⁻¹ | Kd [6]: 0.523 µM | koff [6]: 0.106 s⁻¹ | kon [6]: 203000 M⁻¹ s⁻¹ | Kd [7]: 0.595 µM | koff [7]: 0.115 s⁻¹ | kon [7]: 193000 M⁻¹ s⁻¹ | Kd [8]: 0.462 µM | Kd [9]: 0.42 µM | Kd [10]: 0.58 µM | koff [11]: 0.112 s⁻¹ | kon [11]: 196000 M⁻¹ s⁻¹ | Kd [12]: 0.487 µM
